Literature values, collected in PMC5530503.

Target: VEGFR2 (Homo sapiens) (UniProt P35968)
Chain of UniProt P35968 (P35968 20-1356): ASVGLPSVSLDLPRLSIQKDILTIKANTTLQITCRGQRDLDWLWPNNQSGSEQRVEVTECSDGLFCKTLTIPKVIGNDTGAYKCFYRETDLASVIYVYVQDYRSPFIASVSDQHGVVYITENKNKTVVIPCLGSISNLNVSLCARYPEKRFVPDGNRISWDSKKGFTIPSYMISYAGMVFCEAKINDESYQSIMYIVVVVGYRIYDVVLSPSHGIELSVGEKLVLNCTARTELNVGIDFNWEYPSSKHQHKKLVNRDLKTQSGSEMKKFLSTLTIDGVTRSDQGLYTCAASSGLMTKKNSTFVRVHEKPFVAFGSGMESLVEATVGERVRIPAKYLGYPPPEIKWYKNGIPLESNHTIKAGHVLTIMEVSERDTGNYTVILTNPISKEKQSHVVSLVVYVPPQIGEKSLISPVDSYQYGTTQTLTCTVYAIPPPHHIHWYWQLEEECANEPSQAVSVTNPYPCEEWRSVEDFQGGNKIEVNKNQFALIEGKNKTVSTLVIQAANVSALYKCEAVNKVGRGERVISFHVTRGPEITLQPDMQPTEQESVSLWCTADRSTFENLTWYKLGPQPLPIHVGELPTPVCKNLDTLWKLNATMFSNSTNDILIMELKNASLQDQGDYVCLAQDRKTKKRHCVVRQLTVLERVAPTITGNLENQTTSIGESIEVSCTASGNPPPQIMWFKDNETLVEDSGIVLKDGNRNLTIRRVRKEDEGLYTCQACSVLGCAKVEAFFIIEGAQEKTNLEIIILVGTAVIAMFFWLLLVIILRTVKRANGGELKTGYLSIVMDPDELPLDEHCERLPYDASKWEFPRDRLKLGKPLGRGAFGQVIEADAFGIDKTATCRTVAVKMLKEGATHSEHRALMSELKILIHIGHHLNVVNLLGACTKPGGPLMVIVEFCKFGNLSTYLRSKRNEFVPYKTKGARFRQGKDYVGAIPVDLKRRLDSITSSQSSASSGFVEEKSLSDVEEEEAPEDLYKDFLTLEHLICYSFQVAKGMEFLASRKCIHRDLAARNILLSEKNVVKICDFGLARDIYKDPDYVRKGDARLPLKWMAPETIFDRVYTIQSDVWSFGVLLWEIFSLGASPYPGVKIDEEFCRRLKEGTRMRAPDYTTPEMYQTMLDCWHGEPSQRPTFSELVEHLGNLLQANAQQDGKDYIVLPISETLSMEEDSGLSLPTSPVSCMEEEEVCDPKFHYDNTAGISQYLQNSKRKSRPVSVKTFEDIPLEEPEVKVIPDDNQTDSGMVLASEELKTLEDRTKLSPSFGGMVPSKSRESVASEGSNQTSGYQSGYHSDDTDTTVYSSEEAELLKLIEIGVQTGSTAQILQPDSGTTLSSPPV

For VEGF (from UniProt P15692), the Kd is given as 0.037 nM.
